In article doi:10.1101/238154 (bioRxiv, 2017):
Substitutions are numbered along the chain they refer to. Numbers in names are those of the source. Blank lines part the entries; values can stand above or below the binder they belong to.

What was measured:
ubiquitin (untagged) = ubiquitin (untagged) (UniProt P0CG47 1-76); test: ITC
[1] = molecular target: N-terminally TAMRA-labeled monoubiquitin (UniProt P0CG47 1-76, TAMRA on the N-terminus); test: fluorescence polarisation

Kd (ubiquitin (untagged)): 430 mM
B1: SAGA DUB module containing Ubp8^C146A (complex)
chain 1: MSICPHIQQVFQNEKSKDGVLKTCNAARYILNHSVPKEKFLNTMKCGTCHEINSGATFMCLQCGFCGCWNHSHFLSHSKQIGHIFGINSNNGLLFCFKCEDYIGNIDLINDAILAKYWDDVCTKTMVPSMERRDGLSGLINMGSTAFMSSILQCLIHNPYFIRHSMSQIHSNNCKVRSPDKCFSCALDKIVHELYGALNTKQASSSSTSTNRQTGFIYLLTCAWKINQNLAGYSQQDAHEFWQFIINQIHQSYVLDLPNAKEVSRANNKQCECIVHTVFEGSLESSIVCPGCQNNSKTTIDPFLDLSLDIKDKKKLYECLDSFHKKEQLKDFNYHCGECNSTQDAIKQLGIHKLPSVLVLQLKRFEHLLNGSNRKLDDFIEFPTYLNMKNYCSTKEKDKHSENGKVPDIIYELIGIVSHKGTVNEGHYIAFCKISGGQWFKFNDSMVSSISQEEVLKEQAYLLFYTIRQVN
chain 2: MTEETITIDSISNGILNNLLTTLIQDIVARETTQQQLLKTRYPDLRSYYFDPNGSLDINGLQKQQESSQYIHCENCGRDVSANRLAAHLQRCLSRGARR
chain 3: MTMDTAQLKSQIQQYLVESGNYELISNELKARLLQEGWVDKVKDLTKSEMNINESTNFTQILSTVEPKALEMVSDSTRETVLKQIREFLEEIVDTQ
chain 4: MRSGDAEIKGIKPKVIEEYSLSQGSGPSNDSWKSLMSSAKDTPLQYDHMNRESLKKYFNPNAQLIEDPLDKPIQYRVCEKCGKPLALTAIVDHLEN

binding result [1]: binds
B2: USP4(8-925) wild-type (enzyme)
chain: RERPDAETQKSELGPLMRTTLQRGAQWYLIDSRWFKQWKKYVGFDSWDMYNVGEHNLFPGPIDNSGLFSDPESQTLKEHLIDELDYVLVPTEAWNKLLNWYGCVEGQQPIVRKVVEHGLFVKHCKVEVYLLELKLCENSDPTNVLSCHFSKADTIATIEKEMRKLFNIPAERETRLWNKYMSNTYEQLSKLDNTVQDAGLYQGQVLVIEPQNEDGTWPRQTLQSKSSTAPSRNFTTSPKSSASPYSSVSASLIANGDSTSTCGMHSSGVSRGGSGFSASYNCQEPPSSHIQPGLCGLGNLGNTCFMNSALQCLSNTAPLTDYFLKDEYEAEINRDNPLGMKGEIAEAYAELIKQMWSGRDAHVAPRMFKTQVGRFAPQFSGYQQQDSQELLAFLLDGLHEDLNRVKKKPYLELKDANGRPDAVVAKEAWENHRLRNDSVIVDTFHGLFKSTLVCPECAKVSVTFDPFCYLTLPLPLKKDRVMEVFLVPADPHCRPTQYRVTVPLMGAVSDLCEALSRLSGIAAENMVVADVYNHRFHKIFQMDEGLNHIMPRDDIFVYEVCSTSVDGSECVTLPVYFRERKSRPSSTSSASALYGQPLLLSVPKHKLTLESLYQAVCDRISRYVKQPLPDEFGSSPLEPGACNGSRNSCEGEDEEEMEHQEEGKEQLSETEGSGEDEPGNDPSETTQKKIKGQPCPKRLFTFSLVNSYGTADINSLAADGKLLKLNSRSTLAMDWDSETRRLYYDEQESEAYEKHVSMLQPQKKKKTTVALRDCIELFTTMETLGEHDPWYCPNCKKHQQATKKFDLWSLPKILVVHLKRFSYNRYWRDKLDTVVEFPIRGLNMSEFVCNLSARPYVYDLIAVSNHYGAMGVGHYTAYAKNKLNGKWYYFDDSNVSLASEDQIVTKAAYVLFYQRRDD

Kd [1]: 0.6 ± 0.17 nM
B3: USP4(8-925) C311A mutant (enzyme)
chain: B2 chain with C304A
